The record followed here is patent US20100098704A1 (CELLDEX THERAPEUTICS, published 2010).

Test [1] has as its target T1, human Dendritic and Epithelial Cell 205 receptor (DEC-205) expressed on cells (human, UniProt O60449 28-1722). The experiment in a line: flow cytometry, human monocyte-derived dendritic cells, saturating antibody, PE goat anti-human IgG Fc [C].
The target in test [2] is T2, soluble recombinant human DEC-205 fusion protein (DEC-205 extracellular domain comprising all ten … (human)).
T2 chain: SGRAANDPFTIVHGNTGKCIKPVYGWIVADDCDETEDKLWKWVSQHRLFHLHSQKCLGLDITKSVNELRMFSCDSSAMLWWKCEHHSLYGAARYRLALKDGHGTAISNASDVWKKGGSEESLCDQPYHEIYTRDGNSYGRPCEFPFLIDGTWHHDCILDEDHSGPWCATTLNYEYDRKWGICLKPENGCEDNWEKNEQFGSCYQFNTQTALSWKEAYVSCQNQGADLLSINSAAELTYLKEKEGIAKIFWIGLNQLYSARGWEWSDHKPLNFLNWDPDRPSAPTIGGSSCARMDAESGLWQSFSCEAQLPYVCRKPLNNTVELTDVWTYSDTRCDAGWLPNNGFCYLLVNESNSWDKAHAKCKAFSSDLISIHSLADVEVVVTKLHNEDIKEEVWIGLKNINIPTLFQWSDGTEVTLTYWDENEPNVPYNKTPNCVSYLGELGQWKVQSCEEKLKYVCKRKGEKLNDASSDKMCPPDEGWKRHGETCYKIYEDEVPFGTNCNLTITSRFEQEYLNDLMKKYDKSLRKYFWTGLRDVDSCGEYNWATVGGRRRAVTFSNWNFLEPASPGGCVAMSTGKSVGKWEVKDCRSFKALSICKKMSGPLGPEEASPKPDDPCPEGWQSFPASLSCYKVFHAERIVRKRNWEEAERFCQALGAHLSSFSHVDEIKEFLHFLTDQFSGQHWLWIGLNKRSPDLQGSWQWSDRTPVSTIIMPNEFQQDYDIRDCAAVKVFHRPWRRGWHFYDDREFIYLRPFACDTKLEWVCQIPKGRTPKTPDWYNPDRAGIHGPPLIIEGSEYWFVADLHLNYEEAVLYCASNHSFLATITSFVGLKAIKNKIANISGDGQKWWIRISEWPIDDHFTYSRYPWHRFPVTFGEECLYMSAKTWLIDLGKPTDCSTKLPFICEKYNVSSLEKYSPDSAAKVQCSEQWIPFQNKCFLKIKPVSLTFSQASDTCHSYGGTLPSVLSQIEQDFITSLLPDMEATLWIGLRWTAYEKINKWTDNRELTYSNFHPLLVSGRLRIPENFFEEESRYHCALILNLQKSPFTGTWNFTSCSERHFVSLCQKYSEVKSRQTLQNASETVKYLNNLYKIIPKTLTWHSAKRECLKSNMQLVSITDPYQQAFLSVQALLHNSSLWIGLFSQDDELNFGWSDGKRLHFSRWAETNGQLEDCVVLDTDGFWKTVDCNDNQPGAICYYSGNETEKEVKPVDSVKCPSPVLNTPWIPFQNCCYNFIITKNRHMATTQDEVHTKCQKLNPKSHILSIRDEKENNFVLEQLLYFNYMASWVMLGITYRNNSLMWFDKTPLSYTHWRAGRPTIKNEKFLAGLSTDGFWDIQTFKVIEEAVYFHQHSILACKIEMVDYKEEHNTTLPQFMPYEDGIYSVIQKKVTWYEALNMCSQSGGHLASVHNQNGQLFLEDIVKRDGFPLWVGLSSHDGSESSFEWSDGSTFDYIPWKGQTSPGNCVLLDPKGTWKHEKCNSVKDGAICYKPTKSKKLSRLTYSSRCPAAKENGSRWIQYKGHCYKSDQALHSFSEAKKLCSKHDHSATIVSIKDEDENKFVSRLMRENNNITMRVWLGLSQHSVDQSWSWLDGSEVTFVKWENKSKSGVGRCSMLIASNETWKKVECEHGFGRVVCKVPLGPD
The experiment in a line: SPR (Biacore 2000), DEC-205 fusion protein amine-coupled to CM5 chip, antibody flowed, 1:1 Langmuir fit, mean of two series.

Test [3] has as its target T1, human Dendritic and Epithelial Cell 205 …. Put plainly: flow cytometry, human monocyte-derived dendritic cells, saturating antibody, PE goat anti-human IgG Fc [D].
Test [4] shares this target. The experiment in a line: flow cytometry, human monocyte-derived dendritic cells, saturating antibody, PE goat anti-human IgG Fc [F].
The target is the same in test [5]. Put plainly: flow cytometry, CHO-S cells expressing human DEC-205 against control CHO-S cells, saturating antibody, PE goat anti-human IgG Fc [A].

B1: human anti-DEC-205 monoclonal antibody 3G9-2D2 (antibody, V domains shown)
VH: QVQLVESGGGVVQPGRSLRLSCAASGFTFSNYGMYWVRQAPGKGLEWVAVIWYDGSNKYYADSVKGRFTISRDNSKNTLYLQMNSLRAEDTAVYYCARDLWGWYFDYWGQGTLVTVSS
VL: EIVLTQSPATLSLSPGERATLSCRASQSVSSYLAWYQQKPGQAPRLLIYDASNRATGIPARFSGSGSGTDFTLTISSLEPEDFAVYYCQQRRNWPLTFGGGTKVEIK
Consider B1, for which, in test [1], the binding result was “binds”. In addition, in test [2], the Ka is 4.7e+09 M⁻¹, the Kd came out at 0.24 nM, the koff was 0.00019 s⁻¹ and the association rate constant (kon) was found to be 900000 M⁻¹ s⁻¹.

B2: human anti-DEC-205 monoclonal antibody 5A8-1F1 (antibody, V domains shown)
VH: QVQLVESGGGVVQPGRSLRLSCAASGFTFSTYGMHWVRQAPGKGLEWVAIIWYDGGNKYYADSVKGRFTISRDNSKNTLYLQMNSLRAEDTAVYYCARDFYWYFDLWGRGTLVTVSS
VL: EIVLTQSPATLSLSPGERATLSCRASQSVSSYLAWYQQKPGQAPRLLIYDASNRATGIPARFSGSGSGTDFTLTISSLEPEDFAVYYCQQRRTFGQGTKVEIK
As for B2, the binding result in test [3] is reported as “binds”. Also, in test [2], the Ka turned out to be 2.1e+09 M⁻¹, the dissociation constant Kd was found to be 1.5 nM, the koff was 0.0002 s⁻¹ and the kon is 360000 M⁻¹ s⁻¹.

B3: human anti-DEC-205 monoclonal antibody 3C7-3A3 (antibody, V domains shown)
VH: QVQLVESGGGVVQPGRSLRLSCAASGFTFSSYNMHWVRQAPGKGLEWVAFIWYDGSNKYYGDSVKGRFTISRDNSKNTLYLQMNSLRAEDTAVYYCAREELGIGWYFDLWGRGTLVTVSS
VL: B2 VL
For B3, in test [2], the Ka is 5.2e+08 M⁻¹, the equilibrium dissociation constant (Kd) was 5.6 nM, the koff amounted to 0.00076 s⁻¹ and the association rate constant (kon) was determined as 170000 M⁻¹ s⁻¹. Besides, the binding result in test [4] is reported as “binds”.

B4: human anti-DEC-205 monoclonal antibody 3D6-2F4 (antibody, V domains shown)
VH: QVQLVESGGGVVQPGRSLRLSCAASGFIFSIYGMHWVRQAPGKGLEWVAVIWYDGSNKYYADSVKGRFTISRDNSKNTLYLQMNSLRAEDTAVYYCARAPHFDYWGQGTLVTVSS
VL: DIQMTQSPSSLSASVGDRVTITCRASQGISSWLAWYQQKPEKAPKSLIYAASSLQSGVPSRFSGSGSGTDFTLTISSLQPEDFATYYCQQYNSYPYTFGQGTKLEIK
notes: also called mAb #5
Regarding B4, in test [2], the Ka came out at 1.5e+10 M⁻¹, the Kd is 0.08 nM, the off-rate (koff) was 0.00012 s⁻¹ and the on-rate constant (kon) was 1.8e+06 M⁻¹ s⁻¹. In test [5], the binding result is recorded as “binds”.
